The target of the data set is HCoV-OC43 N WT (Human coronavirus OC43, UniProt P33469 1-448). As to the kind of experiment: SPR. (In general: Surface plasmon resonance follows binding to a sensor surface in real time, without labels.)

The term Kd denotes the constant that tells how readily two partners part at equilibrium. Higher therefore signals a looser complex.

HCoV-OC43 N WT, sequence (P33469 whole entry): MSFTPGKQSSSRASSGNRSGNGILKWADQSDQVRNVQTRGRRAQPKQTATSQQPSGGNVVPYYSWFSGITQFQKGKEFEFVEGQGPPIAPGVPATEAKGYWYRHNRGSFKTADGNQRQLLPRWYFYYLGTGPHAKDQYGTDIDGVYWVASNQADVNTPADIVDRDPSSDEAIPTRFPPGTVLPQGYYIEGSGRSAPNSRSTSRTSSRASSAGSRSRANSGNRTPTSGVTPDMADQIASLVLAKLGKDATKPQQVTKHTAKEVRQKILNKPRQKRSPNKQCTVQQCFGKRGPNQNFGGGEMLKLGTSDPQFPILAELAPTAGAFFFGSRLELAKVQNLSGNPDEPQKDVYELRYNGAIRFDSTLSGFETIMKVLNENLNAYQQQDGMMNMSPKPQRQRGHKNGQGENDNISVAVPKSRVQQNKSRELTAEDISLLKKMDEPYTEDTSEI

For UCUAAACUCUAAACUCUAAACUCUAAAC (ssRNA) [(UCUAAAC)4 28-mer], the Kd amounted to 11.7 ± 0.82 nM.

The values above are taken from paper PMC3774783.
